Here are results for two substances from patent publication US7348154B2, “IGF binding proteins” (Genentech, Inc., priority 2003, dated 2008).

One may read the Kd as the free concentration of one partner at which half of the binding sites on the other are occupied at equilibrium, for simple one-to-one binding.

Assay [1] concerns the target T1, native-sequence human IGFBP-3 (Homo sapiens, UniProt P17936, A32G).
T1 construct: “wild-type IGFBP-3,” and “full-length IGFBP-3” is wild-type human IGFBP-3; made in house; host or cells: E. coli BL21, vector pET21a
Nature of the assay: BIAcore competition: bp15 versus immobilized biotinylated IGF-I and -II for binding to IGFBP-3. Conditions: 15 nM to 100 µM bp15, 20 nM IGFBP-3, 1 hour at room temperature. The procedure: A total of 15 nM to 100:M bp15 peptide and 20 nM native-sequence human IGFBP-3 were incubated for 1 hour at room temperature before injection over immobilized biotinylated native-sequence human IGF-I and -II.
Competition binding experiments were carried out as follows. 15 nM to 100:M bp15 peptide and 20 nM IGFBP-3 were incubated for 1 hour at room temperature before injection at 20:l/min in PBST over immobilized biotinylated IGF-I and -II. Equilibrium binding data was plotted in GraphPad Prism™ software and fit to a one-site competition-binding model.
(§1) Peptide bp15 ([…]) (SEQ ID NO:11) was identified by phage display (Lowman et al., Biochemistry, 1998, supra). […] Therefore, bp15 was tested to see if it would bind to the miniBP-3 fusion. Compare FIGS. 7 and 8 for competitive binding data for bp15 to IGFBP-3 and to the miniBP-3 fusion, respectively.
In general terms: In SPR one partner is held on a chip, and binding of the other changes the refractive index at the surface.

A further assay has as its target T2, miniBP-3 fusion protein (Homo sapiens, UniProt P17936).
T2 construct: made in house; host or cells: E. coli BL21, vector pET21a; purified on IgG Sepharose
The assay can be described thus: BIAcore competition: bp15 versus immobilized biotinylated IGF-I for binding to miniBP-3 fusion protein. Conditions: 1.17 to 300 µM bp15, 1 µM miniBP-3 fusion; exact affinity not determined due to lack of saturation. The procedure: as §1

The target in assay [2] is native-sequence human IGF-I (Homo sapiens, UniProt P05019). The assay can be described thus: BIAcore kinetic analysis of binding to IGF-I.
Protocol: (§2) Two types of chips were prepared for this purpose.
(§3) Carboxymethylated dextran biosensor chips (CM5, BIAcore Inc.) were activated with EDC (N-ethyl-N′-(3-dimethylaminopropyl)-carbodiimide hydrochloride) and NHS(N-hydroxysuccinimide) according to the supplier's instructions. For immobilization, wild-type IGFBP-3 and mutants in 10 mM sodium acetate, pH 4, were injected onto the biosensor chip at a concentration of 0.2 mg/ml to yield approximately 450-700 RU's (resonance-response units) of covalently coupled protein. Unreacted groups were blocked with an injection of 1 M ethanolamine.
(§4) Kinetic measurements were carried out by injecting two-fold serial dilutions of IGF-I or IGF-II in PBST running buffer (PBS, 0.05% TWEEN-20™ buffer, 0.01% sodium azide) at 25° C. using a flow rate of 20 or 50:l/min. IGF concentrations ranged between 0.4 nM and 50 nM for IGFBP-3 and 100 nM to 25:M for miniBP-3 fusion. For both proteins, association and dissociation rates were calculated using a 1:1 Langmuir association model in the BIAcore™ evaluation software. For wild-type IGFBP-3, the equilibrium dissociation constant was calculated as kd/ka. For miniBP-3 fusion, the equilibrium dissociation constant was calculated by plotting equilibrium binding data in GraphPad Prism™ software (GraphPad Software Inc., San Diego, Calif.) and fitting to a one-site binding model.
(§5) Streptavidin-coated chips were conditioned according to the manufacturer's instructions (BIAcore, Inc.) prior to injection of 0.02 mg/ml of biotinylated IGF-I or IGF-II in 10 mM sodium acetate pH 4. Biotinylated IGF-I and IGF-II were prepared using EZ-Link biotinylation reagents according to the manufacturer's instructions (Pierce). Between 100 and 1000 RUs were immobilized on the chip.
(§6) Concentrations were between 250 nM and 32:M.
Assay [3] concerns the target native-sequence human IGF-II (Homo sapiens, UniProt P01344). The assay can be described thus: BIAcore kinetic analysis of binding to IGF-II.
Protocol: as §2, §3, §4, §5, §6
Setting [4] is: IGF-I injected over immobilized wild-type IGFBP-3, 25° C., 1:1 Langmuir model.
The mark [5] stands for this setting: wild-type IGFBP-3, calculated as kd/ka.
Where [6] appears, read: IGF-II injected over immobilized wild-type IGFBP-3, 25° C., 1:1 Langmuir model.

Chain of native-sequence human IGF-I (P05019 49-118 limits assumed): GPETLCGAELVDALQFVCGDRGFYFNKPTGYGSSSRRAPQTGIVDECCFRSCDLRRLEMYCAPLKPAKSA
Chain of native-sequence human IGF-II (P01344 25-91 limits assumed): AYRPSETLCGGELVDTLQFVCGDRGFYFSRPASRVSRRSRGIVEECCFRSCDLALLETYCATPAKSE
T1 sequence (P17936 28-291 A32G): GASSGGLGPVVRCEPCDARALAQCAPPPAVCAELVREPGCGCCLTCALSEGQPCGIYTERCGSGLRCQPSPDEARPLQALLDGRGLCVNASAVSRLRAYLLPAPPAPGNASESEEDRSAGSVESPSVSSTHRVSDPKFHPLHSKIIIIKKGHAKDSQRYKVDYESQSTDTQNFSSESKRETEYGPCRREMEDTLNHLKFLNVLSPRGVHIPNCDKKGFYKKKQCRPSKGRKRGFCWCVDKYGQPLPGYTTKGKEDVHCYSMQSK
T2 sequence (P17936 74-126, added parts left off): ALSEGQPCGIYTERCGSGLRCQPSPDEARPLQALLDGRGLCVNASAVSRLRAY

As to “SEEVCWPVAEWYLCN (Sequence is synthesized) [bp15]”, the “competition with IGF-I and -II for binding to IGFBP-3” value in assay [1] was “competes with IGF-I and -II for binding to IGFBP-3”. Also, the “binding to miniBP-3 fusion” value with miniBP-3 fusion protein is “does bind to the miniBP-3 fusion, but with reduced affinity compared to wild-type IGFBP-3”.

Turning to “Wild-type IGFBP-3: wild-type human IGFBP-3 (SEQ ID NO:1 or 12), produced in E. coli and refolded”, the ka in assay [2] (setting [4]) is reported as 715 ± 3.66 ×10^4 M^−1 s^−1; in assay [3] (setting [6]), 348 ± 1.02 ×10^4 M^−1 s^−1. The kd in assay [2] (setting [4]) is given as 7.58 ± 0.07 ×10^−4 s^−1; in assay [3] (setting [6]) it was 4.07 ± 0.05 ×10^−4 s^−1. The Kd was 0.11 ± 0.001 nM in assay [2] (setting [5]) and 0.12 ± 0.001 nM in assay [3] (setting [5]).
